Assay results as given in patent US20110027907A1 (AUCKLAND UNISERVICE, published 2011).

Target: T1, recombinant SSL7 (GL1 S. aureus Greenlane), wild type (Staphylococcus aureus)
T1 construct: also called rSSL7; SET1 GL1
Assay: co-crystal structure

B1: recombinant IgA Fc (Cys242 to Pro455 of human IgA1) (other)
chain: CHPRLSLHRPALEDLLLGSEANLTCTLTGLRDASGVTFTWTPSSGKSAVQGPPERDLCGCYSVSSVLPGCAEPWNHGKTFTCTAAYPESKTPLTATLSKSGNTFRPEVHLLPPPSEELALNELVTLTCLARGFSPKDVLVRWLQGSQELPREKYLTWASRQEPSQGTTTFAVTSILRVAAEDWKKGDTFSCMVGHEALPLAFTQKTIDRLAGKP
notes: range 242-455
binding result: binds
